# Data published in US9150647 (KANCERA, dated 2015).
# B1: Anti-Ror1 Ig24 (clone 2A4) antibody (antibody, IgM, V domains shown)
# VH: EVKLQQSGPELVKPGASVKISCKTSGYTFTEYTMHWVKQSHGKSLEWIGGINPNNGGTSYNQKFKGKATLTVDKSSSTAYMELRSLTSEDSAVYYCALQGFAYWGQGTPLTVSS
# VL: EIEITQTPALMSASPGEKVTMTCSASSSVSYMYWYQQKPRSSPKPWIYLTSNLASGVPARFSGSGSGTSYSLTISSMEAEDAATYYCQQWSSNPYTFGGGTRLELK
# notes: Mouse monoclonal antibody; also called Ror Ig24 (IgM)
# B2: Anti-Ror1 CRD16 (clone 1C11) antibody (antibody, V domains shown)
# VH: EVKLQESGAELARPGASVKMSCKASGYTFTSYTMHWVKQRPGQGLEWIGYINPSSGYTEYNQKFKDKTTLTADKSSSTAYMQLSSLTSGDSAVYYCARRVLWLRRGDYWGQGTILTVSA
# VL: EVLITQTPSSLSASLGERVSLTCRASQDIGSSLNWLQQEPDGTIKRLIYATSSLDSGVPKRFSGSRSGSDYSLTISSLESEDFVDYYCLQYASSPYTFGGGTKLELK
# notes: Mouse monoclonal antibody; also called Ror CRD (IgM)
# What was measured:
# [1] = biological target: human Ror1 (receptor tyrosine kinase ROR1, 937 amino acids, 105 kDa) (human) (UniProt Q01973); assay: flow cytometry, surface staining of CD19+ cells of patient CLL-14
# Chain of human Ror1 (receptor tyrosine kinase ROR1, 937 amino acids, 105 kDa) (human) (Q01973 30-937): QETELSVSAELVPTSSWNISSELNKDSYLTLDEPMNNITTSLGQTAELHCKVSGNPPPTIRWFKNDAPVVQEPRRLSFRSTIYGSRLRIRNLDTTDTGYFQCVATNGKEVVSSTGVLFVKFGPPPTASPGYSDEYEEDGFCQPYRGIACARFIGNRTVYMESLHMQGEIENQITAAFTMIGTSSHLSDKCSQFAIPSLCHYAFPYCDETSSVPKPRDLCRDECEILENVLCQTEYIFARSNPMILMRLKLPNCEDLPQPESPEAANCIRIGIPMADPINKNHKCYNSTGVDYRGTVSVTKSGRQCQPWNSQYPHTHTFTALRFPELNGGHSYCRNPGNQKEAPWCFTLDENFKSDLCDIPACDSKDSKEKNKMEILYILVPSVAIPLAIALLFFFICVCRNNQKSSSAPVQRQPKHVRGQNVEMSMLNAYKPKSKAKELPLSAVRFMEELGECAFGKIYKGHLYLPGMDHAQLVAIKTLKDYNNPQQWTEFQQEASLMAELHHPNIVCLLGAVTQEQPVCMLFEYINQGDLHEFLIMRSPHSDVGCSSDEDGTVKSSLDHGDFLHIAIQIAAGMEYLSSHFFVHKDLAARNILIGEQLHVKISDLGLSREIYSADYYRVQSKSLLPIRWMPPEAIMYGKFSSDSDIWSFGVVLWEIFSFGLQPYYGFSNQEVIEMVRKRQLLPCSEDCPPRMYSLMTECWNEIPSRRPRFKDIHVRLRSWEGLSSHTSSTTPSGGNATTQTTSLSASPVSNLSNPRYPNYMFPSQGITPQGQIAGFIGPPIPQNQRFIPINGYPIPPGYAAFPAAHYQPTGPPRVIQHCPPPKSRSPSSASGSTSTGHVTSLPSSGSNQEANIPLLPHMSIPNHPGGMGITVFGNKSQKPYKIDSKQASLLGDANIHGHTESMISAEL
# [2] = biological target: human Ror1 (receptor tyrosine kinase ROR1, 937 amino acids, 105 kDa) (human) (UniProt Q01973); assay: flow cytometry, surface staining of CD19+ cells of patient CLL-1
# [3] = biological target: human Ror1 (receptor tyrosine kinase ROR1, 937 amino acids, 105 kDa) (human) (UniProt Q01973); assay: flow cytometry, surface staining of cells of patient CLL-16
# [4] = biological target: human Ror1 (receptor tyrosine kinase ROR1, 937 amino acids, 105 kDa) (human) (UniProt Q01973); assay: flow cytometry, surface staining of CD19+ cells of patient CLL-12
# [5] = biological target: human Ror1 (receptor tyrosine kinase ROR1, 937 amino acids, 105 kDa) (human) (UniProt Q01973); assay: flow cytometry, surface staining of cells of patient CLL-14
# [6] = biological target: human Ror1 (receptor tyrosine kinase ROR1, 937 amino acids, 105 kDa) (human) (UniProt Q01973); assay: flow cytometry, surface staining of CD19+ cells of patient CLL-16
# [7] = biological target: human Ror1 (receptor tyrosine kinase ROR1, 937 amino acids, 105 kDa) (human) (UniProt Q01973); assay: flow cytometry, surface staining of cells of patient CLL-7
# [8] = biological target: human Ror1 (receptor tyrosine kinase ROR1, 937 amino acids, 105 kDa) (human) (UniProt Q01973); assay: flow cytometry, surface staining of cells of patient CLL-5
# [9] = biological target: human Ror1 (receptor tyrosine kinase ROR1, 937 amino acids, 105 kDa) (human) (UniProt Q01973); assay: flow cytometry, surface staining of cells of patient CLL-12
# [10] = biological target: human Ror1 (receptor tyrosine kinase ROR1, 937 amino acids, 105 kDa) (human) (UniProt Q01973); assay: flow cytometry, surface staining of CD19+ cells of patient CLL-13
# [11] = biological target: human Ror1 (receptor tyrosine kinase ROR1, 937 amino acids, 105 kDa) (human) (UniProt Q01973); assay: flow cytometry, surface staining of CD19+ cells of patient CLL-3
# [12] = biological target: human Ror1 (receptor tyrosine kinase ROR1, 937 amino acids, 105 kDa) (human) (UniProt Q01973); assay: flow cytometry, surface staining of CD19+ cells of patient CLL-15
# [13] = biological target: human Ror1 (receptor tyrosine kinase ROR1, 937 amino acids, 105 kDa) (human) (UniProt Q01973); assay: flow cytometry, surface staining of cells of patient CLL-18
# [14] = biological target: human Ror1 (receptor tyrosine kinase ROR1, 937 amino acids, 105 kDa) (human) (UniProt Q01973); assay: flow cytometry, surface staining of cells of patient CLL-2
# [15] = biological target: human Ror1 (receptor tyrosine kinase ROR1, 937 amino acids, 105 kDa) (human) (UniProt Q01973); assay: flow cytometry, surface staining of cells of patient CLL-3
# [16] = biological target: human Ror1 (receptor tyrosine kinase ROR1, 937 amino acids, 105 kDa) (human) (UniProt Q01973); assay: flow cytometry, surface staining of CD19+ cells of patient CLL-6
# [17] = biological target: human Ror1 (receptor tyrosine kinase ROR1, 937 amino acids, 105 kDa) (human) (UniProt Q01973); assay: flow cytometry, surface staining of CD19+ cells of patient CLL-7
# [18] = biological target: human Ror1 (receptor tyrosine kinase ROR1, 937 amino acids, 105 kDa) (human) (UniProt Q01973); assay: flow cytometry, surface staining of cells of patient CLL-9
# [19] = biological target: human Ror1 (receptor tyrosine kinase ROR1, 937 amino acids, 105 kDa) (human) (UniProt Q01973); assay: flow cytometry, surface staining of CD19+ cells of patient CLL-18
# [20] = biological target: human Ror1 (receptor tyrosine kinase ROR1, 937 amino acids, 105 kDa) (human) (UniProt Q01973); assay: flow cytometry, surface staining of cells of patient CLL-8
# [21] = biological target: human Ror1 (receptor tyrosine kinase ROR1, 937 amino acids, 105 kDa) (human) (UniProt Q01973); assay: flow cytometry, surface staining of CD19+ cells of patient CLL-4
# [22] = biological target: human Ror1 (receptor tyrosine kinase ROR1, 937 amino acids, 105 kDa) (human) (UniProt Q01973); assay: flow cytometry, surface staining of cells of patient CLL-4
# [23] = biological target: human Ror1 (receptor tyrosine kinase ROR1, 937 amino acids, 105 kDa) (human) (UniProt Q01973); assay: flow cytometry, surface staining of CD19+ cells of patient CLL-11
# [24] = biological target: human Ror1 (receptor tyrosine kinase ROR1, 937 amino acids, 105 kDa) (human) (UniProt Q01973); assay: flow cytometry, surface staining of cells of patient CLL-1
# [25] = biological target: human Ror1 (receptor tyrosine kinase ROR1, 937 amino acids, 105 kDa) (human) (UniProt Q01973); assay: flow cytometry, surface staining of CD19+ cells of patient CLL-2
# [26] = biological target: human Ror1 (receptor tyrosine kinase ROR1, 937 amino acids, 105 kDa) (human) (UniProt Q01973); assay: flow cytometry, surface staining of CD19+ cells of patient CLL-17
# [27] = biological target: human Ror1 (receptor tyrosine kinase ROR1, 937 amino acids, 105 kDa) (human) (UniProt Q01973); assay: flow cytometry, surface staining of cells of patient CLL-15
# [28] = biological target: human Ror1 (receptor tyrosine kinase ROR1, 937 amino acids, 105 kDa) (human) (UniProt Q01973); assay: flow cytometry, surface staining of CD19+ cells of patient CLL-8
# [29] = biological target: human Ror1 (receptor tyrosine kinase ROR1, 937 amino acids, 105 kDa) (human) (UniProt Q01973); assay: flow cytometry, surface staining of CD19+ cells of patient CLL-5
# [30] = biological target: human Ror1 (receptor tyrosine kinase ROR1, 937 amino acids, 105 kDa) (human) (UniProt Q01973); assay: flow cytometry, surface staining of cells of patient CLL-10
# [31] = biological target: human Ror1 (receptor tyrosine kinase ROR1, 937 amino acids, 105 kDa) (human) (UniProt Q01973); assay: flow cytometry, surface staining of CD19+ cells of patient CLL-10
# [32] = biological target: human Ror1 (receptor tyrosine kinase ROR1, 937 amino acids, 105 kDa) (human) (UniProt Q01973); assay: flow cytometry, surface staining of cells of patient CLL-13
# [33] = biological target: human Ror1 (receptor tyrosine kinase ROR1, 937 amino acids, 105 kDa) (human) (UniProt Q01973); assay: flow cytometry, surface staining of cells of patient CLL-6
# [34] = biological target: human Ror1 (receptor tyrosine kinase ROR1, 937 amino acids, 105 kDa) (human) (UniProt Q01973); assay: flow cytometry, surface staining of cells of patient CLL-11
# [35] = biological target: human Ror1 (receptor tyrosine kinase ROR1, 937 amino acids, 105 kDa) (human) (UniProt Q01973); assay: flow cytometry, surface staining of CD19+ cells of patient CLL-9
# [36] = biological target: human Ror1 (receptor tyrosine kinase ROR1, 937 amino acids, 105 kDa) (human) (UniProt Q01973); assay: flow cytometry, surface staining of cells of patient CLL-17
# [37] = biological target: T1, human Ror1 (receptor tyrosine kinase ROR1, 937 amino acids, 105 kDa) (human, UniProt Q01973 30-937); assay: flow cytometry, surface staining of CLL cells
# T1 construct: whole, on cells; Endogenous Ror1 of primary CLL cells; the same entry is used for surface staining and for the 105 kDa band in Western blots of cell lysates; also called Ror1 protein
# T1 sequence (Q01973 30-937): as above
molecule,measurement,setting,value
goat anti-Ror1 polyclonal antibody (N-Ror1com) (R&D systems),Freq. (%) of Ror1+ CLL cells (CD19+),[1],92%
same,Freq. (%) of Ror1+ CLL cells (CD19+),[2],80%
same,Ror1 MFI,[3],18
same,Freq. (%) of Ror1+ CLL cells (CD19+),[4],81%
same,Ror1 MFI,[5],45
same,Freq. (%) of Ror1+ CLL cells (CD19+),[6],36%
same,Ror1 MFI,[7],14
same,Ror1 MFI,[8],26
same,Ror1 MFI,[9],15
same,Freq. (%) of Ror1+ CLL cells (CD19+),[10],84%
same,Freq. (%) of Ror1+ CLL cells (CD19+),[11],36%
same,Freq. (%) of Ror1+ CLL cells (CD19+),[12],61%
same,Ror1 MFI,[13],33
same,Ror1 MFI,[14],25
same,Ror1 MFI,[15],10
same,Freq. (%) of Ror1+ CLL cells (CD19+),[16],91%
same,Freq. (%) of Ror1+ CLL cells (CD19+),[17],37%
same,Ror1 MFI,[18],20
same,Freq. (%) of Ror1+ CLL cells (CD19+),[19],93%
same,Ror1 MFI,[20],20
same,Freq. (%) of Ror1+ CLL cells (CD19+),[21],86%
same,Ror1 MFI,[22],20
same,Freq. (%) of Ror1+ CLL cells (CD19+),[23],65%
same,Ror1 MFI,[24],13
same,Freq. (%) of Ror1+ CLL cells (CD19+),[25],91%
same,Freq. (%) of Ror1+ CLL cells (CD19+),[26],79%
same,Ror1 MFI,[27],19
same,Freq. (%) of Ror1+ CLL cells (CD19+),[28],50%
same,Freq. (%) of Ror1+ CLL cells (CD19+),[29],80%
same,Ror1 MFI,[30],10
same,Freq. (%) of Ror1+ CLL cells (CD19+),[31],63%
same,Ror1 MFI,[32],14
same,Ror1 MFI,[33],35
same,Ror1 MFI,[34],11
same,Freq. (%) of Ror1+ CLL cells (CD19+),[35],69%
same,Ror1 MFI,[36],20
B1,binding result,[37],binds
B2,binding result,[37],binds
